# “And” between values parts separate entries of the source, which are not always exact repeats. Equal entries are not always repeated.
# Key:
# Test in all cases: cell-based or functional assay
# human IL-25 (human) = human IL-25 (human) (UniProt Q9H293)
# human IL-17RA (human) = human IL-17RA (human) (UniProt Q96F46)
# human IL-17RB (human) = human IL-17RB (human) (UniProt Q9NRM6)
# Sequence of human IL-17RB (human) (Q9NRM6 18-502): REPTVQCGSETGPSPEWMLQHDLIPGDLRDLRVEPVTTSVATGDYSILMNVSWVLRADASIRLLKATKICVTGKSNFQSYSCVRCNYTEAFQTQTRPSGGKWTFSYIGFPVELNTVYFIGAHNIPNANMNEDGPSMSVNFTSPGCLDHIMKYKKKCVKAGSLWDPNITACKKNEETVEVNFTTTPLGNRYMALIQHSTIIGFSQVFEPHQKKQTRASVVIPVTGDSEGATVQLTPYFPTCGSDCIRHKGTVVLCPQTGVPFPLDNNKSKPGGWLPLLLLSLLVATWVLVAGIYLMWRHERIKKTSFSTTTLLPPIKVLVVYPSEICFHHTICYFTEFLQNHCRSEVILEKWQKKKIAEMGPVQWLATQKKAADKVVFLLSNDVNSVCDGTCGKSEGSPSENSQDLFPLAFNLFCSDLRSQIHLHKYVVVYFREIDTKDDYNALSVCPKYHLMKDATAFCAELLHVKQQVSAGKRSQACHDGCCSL
# Sequence of human IL-25 (human) (Q9H293 33-177 limits assumed): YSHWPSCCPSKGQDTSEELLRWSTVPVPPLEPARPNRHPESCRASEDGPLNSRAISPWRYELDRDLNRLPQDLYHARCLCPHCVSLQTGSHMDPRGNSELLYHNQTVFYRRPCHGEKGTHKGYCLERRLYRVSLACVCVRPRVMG
substance,measurement,setting,value
HuIL-17RB: HIS (extracellular region of human IL-17RB fused to poly HIS) (from UniProt Q9NRM6 18-292) (receptor),"% Inhibition of IL-5 production, TSLP treated human PBMC + IL-2 + IL-25; inhibitor 10 micrograms/mL",human IL-25 (human),67%
MAB1771: anti-HuIL-17RA MuIgG2b (R&D Systems) (antibody),"% Inhibition of IL-5 production, TSLP treated human PBMC + IL-2 + IL-25; inhibitor 10 micrograms/mL",human IL-17RA (human),24% and 33%
MAB1207: anti-HuIL-17RB MuIgG2b (R&D Systems) (antibody),"% Inhibition of IL-5 production, TSLP treated human PBMC + IL-2 + IL-25; inhibitor 10 micrograms/mL",human IL-17RB (human),13%
